# Measurements reported in article PMC11980593.
# Biological target: hexahistidine-tagged VapD toxin from Campylobacter jejuni (VapD^Cje) (Campylobacter jejuni)
# Assay: crystal structure; co-expressed and co-purified VapD-VapW complex; sitting drop at 20°C, 20% PEG 1000, 100 mM sodium phosphate dibasic/citric acid pH 4.2, 200 mM lithium sulfate; space group C 2 2 21; 1.95 Å
substance,measurement,value
strep-tagged VapW antitoxin from Campylobacter jejuni (VapW^Cje) (natural protein),stoichiometry N (VapD per VapW (2:2)),1
